Our source for the Kd values is patent publication US20050153376A1 (AUCKLAND UNISERVICES, published 2005).

The target in test [1] is MHC class II (HLA-DR1) on human LG-2 cells (human). As to the kind of experiment: Scatchard analysis, 125I-labelled toxin on LG-2 cells.
For test [2] the target is unchanged.
The target is the same in test [3]. As to the kind of experiment: Scatchard analysis, 125I-labelled toxin on LG-2 cells; high affinity site.
Test [4] shares this target. As to the kind of experiment: Scatchard analysis, 125I-labelled toxin on LG-2 cells; low affinity site.

Like-named read-outs stand apart in the source and are kept apart here.

B1: recombinant SEB (other)
chain: ESQPDPKPDELHKSSKFTGLMENMKVLYDDNHVSAINVKSIDQFLYFDLIYSIKDTKLGNYDNVRVEFKNKDLADKYKDKYVDVFGANYYYQCYFSKKTNDINSHQTDKRKTCMYGGVTEHNGNQLDKYRSITVRVFEDGKNLLSFDVQTNKKKVTAQELDYLTRHYLVKNKKLYEFNNSPYETGYIKFIENENSFWYDMMPAPGDKFDQSKYLMMYNDNKMVDSKDVKIEVYLTTKKK
On to B1, for which the Kd in test [1] was determined as 340 nM.

B2: recombinant SPE-G superantigen (mature) (other)
chain: DENLKDLKRSLRFAYNITPCDYENVEIAFVTTNSIHINTKQKRSECILYVDSIVSLGITDQFIKGDKVDVFGLPYNFSPPYVDNIYGGIVKHSNQGNKSLQFVGILNQDGKETYLPSEAVRIKKKQFTLQEFDFKIRKFLMEKYNIYDSESRYTSGSLFLATKDSKHYEVDLFNKDDKLLSRDSFFKRYKDNKIFNSEEISHFDIYLKTH
As for B2, the equilibrium dissociation constant (Kd) is 15 to 65 nM in test [2], 16 nM in test [3] and 1000 nM in test [4].

B3: recombinant TSST (other)
chain: STNDNIKDLLDWYSSGSDTFTNSEVLDNSLGSMRIKNTDGSISLIIFPSPYYSPAFTKGEKVDLNTKRTKKSQHTSEGTYIHFQISGVTNTEKLPTPIELPLKVKVHGKDSPLKYGPKFDKKQLAISTLDFEIRHQLTQIHGLYRSSDKTGGYWKITMNDGSTYQSDLSKKFEYNTEKPPINIDEIKTIEAEIN
Molecule B3 gave a dissociation constant Kd in test [1] of 130 nM.

B4: recombinant SEA (other)
chain: SEKSEEINEKDLRKKSELQGTALGNLKQIYYYNEKAKTENKESHDQFLQHTILFKGFFTDHSWYNDLLVDFDSKDIVDKYKGKKVDLYGAYYGYQCAGGTPNKTACMYGGVTLHDNNRLTEEKKVPINLWLDGKQNTVPLETVKTNKKNVTVQELDLQARRYLQEKYNLYNSDVFDGKVQRGLIVFHTSTEPSVNYDLFGAQGQYSNTLLRIYRDNKTINSENMHIDIYLYTS
B4: the Kd in test [3] worked out at 36 nM; in test [4], 1000 nM.
